From US20260053918A1 come the findings set out here.

For the assay, the target named is CD19 (UniProt P15391). Description: cell-based or functional assay.

The substance “CD19R:CD28:z(CO) CAR containing the 2 point mutations, L235E and N297Q, in the CH2 portion of the IgG4 spacer (CD19R(EQ)), expressed on CMV/CAR T cells” displayed a total cell increase after 2 rounds of stimulation with irradiated CD19-expressing NIH3T3 cells of 120 to 150 fold.
